Measurements as given in article PMC11327109, “Unwinding of a eukaryotic origin of replication visualized by cryo-EM” (Nature Structural & Molecular Biology, 2024).

T1: Mcm10 wild-type (Saccharomyces cerevisiae, UniProt P32354 1-571)
T1 sequence: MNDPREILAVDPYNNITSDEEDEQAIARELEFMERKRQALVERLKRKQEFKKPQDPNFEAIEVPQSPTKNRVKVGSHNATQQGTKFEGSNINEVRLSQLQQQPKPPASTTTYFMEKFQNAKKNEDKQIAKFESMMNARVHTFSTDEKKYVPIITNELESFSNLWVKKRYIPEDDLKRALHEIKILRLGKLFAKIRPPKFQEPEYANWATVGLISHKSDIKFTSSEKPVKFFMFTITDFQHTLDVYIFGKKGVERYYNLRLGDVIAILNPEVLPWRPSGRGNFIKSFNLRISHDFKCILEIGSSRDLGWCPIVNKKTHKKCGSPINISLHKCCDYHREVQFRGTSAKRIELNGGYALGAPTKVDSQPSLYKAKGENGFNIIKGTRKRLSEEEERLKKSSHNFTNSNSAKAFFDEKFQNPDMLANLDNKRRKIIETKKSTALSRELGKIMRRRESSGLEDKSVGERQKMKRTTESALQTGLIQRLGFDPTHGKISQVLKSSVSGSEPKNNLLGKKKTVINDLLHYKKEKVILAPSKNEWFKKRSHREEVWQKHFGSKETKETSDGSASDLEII

T2: Mcm10 3A (OB-fold mutant) (Saccharomyces cerevisiae, UniProt P32354 1-571, F230A;Y245A;F247A)
T2 sequence: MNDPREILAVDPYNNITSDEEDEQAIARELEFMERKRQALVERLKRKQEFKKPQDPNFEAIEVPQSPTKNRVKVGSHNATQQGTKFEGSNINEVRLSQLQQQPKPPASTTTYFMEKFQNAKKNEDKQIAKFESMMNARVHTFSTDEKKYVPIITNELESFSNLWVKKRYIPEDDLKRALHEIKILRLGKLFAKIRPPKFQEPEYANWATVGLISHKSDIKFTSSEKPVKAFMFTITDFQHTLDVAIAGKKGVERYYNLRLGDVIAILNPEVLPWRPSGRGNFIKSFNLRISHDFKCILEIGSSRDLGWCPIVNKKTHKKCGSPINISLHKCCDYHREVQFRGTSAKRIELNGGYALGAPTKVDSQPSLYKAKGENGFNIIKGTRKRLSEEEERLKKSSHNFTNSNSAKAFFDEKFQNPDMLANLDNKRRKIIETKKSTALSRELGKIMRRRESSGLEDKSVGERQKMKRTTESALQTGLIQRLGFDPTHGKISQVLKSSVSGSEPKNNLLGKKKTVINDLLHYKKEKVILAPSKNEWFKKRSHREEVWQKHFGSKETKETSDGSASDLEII

T3: Mcm10 deltaCTD (Saccharomyces cerevisiae, UniProt P32354 1-357, del358-571)
T3 sequence: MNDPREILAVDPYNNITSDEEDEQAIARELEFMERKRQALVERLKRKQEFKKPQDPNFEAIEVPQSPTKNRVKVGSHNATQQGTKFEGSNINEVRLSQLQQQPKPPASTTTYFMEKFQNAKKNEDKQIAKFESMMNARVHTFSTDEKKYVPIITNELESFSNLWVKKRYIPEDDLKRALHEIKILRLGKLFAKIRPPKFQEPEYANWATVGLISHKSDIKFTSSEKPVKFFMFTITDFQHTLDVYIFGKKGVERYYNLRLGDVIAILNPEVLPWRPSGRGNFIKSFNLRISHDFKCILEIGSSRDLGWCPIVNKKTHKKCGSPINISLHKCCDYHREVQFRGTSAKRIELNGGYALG


Key:
[1] = test system: T4, sCMGE10 (single Cdc45-MCM-GINS-Polε with Mcm10); assay: cryo-EM structure of complex ([…]-3.[…] Å); format: binding, Saccharomyces cerevisiae; conditions: assembled with 5 mM ATP, magnesium acetate, pH 7.6, bound to origin DNA; MCM ATPase sites
T4 construct: gene MCM2; His- or TwinStrepII-tagged GINS; MCM loaded as Mcm2-7/Cdt1; wild type; ATP/ADP in MCM ATPase tier; with Cell division control protein 45; DNA replication complex GINS protein PSF1; DNA replication complex GINS protein PSF2; DNA replication complex GINS protein PSF3; DNA replication complex GINS protein SLD5; DNA polymerase epsilon catalytic subunit A; DNA polymerase epsilon subunit B; DNA polymerase epsilon subunit C; DNA polymerase epsilon subunit D; Minichromosome maintenance protein 10

[2] = biological target: T1, Mcm10 wild-type; assay: MST; 10 mM Mg acetate; MST: 25 mM HEPES-KOH pH 7.6, 100 mM K-glutamate, 10 mM Mg acetate, 0.02% NP-40, 0.5 mM TCEP, 5 nM ssDNA, room temperature, 30 min; CMG assembly/EM: same buffer; conditions: protein: recombinant; tags: N-terminal His, C-terminal Flag (pHis-Mcm10-Flag); label: FAM (after the 3' end)
[3] = biological target: T2, Mcm10 3A (OB-fold mutant); assay: as above; conditions: protein: recombinant; label: FAM (after the 3' end)
[4] = biological target: T3, Mcm10 deltaCTD; assay: as above; conditions: protein: recombinant; tags: N-terminal 6xHis, C-terminal 3xFlag; label: FAM (after the 3' end)

| Molecule | cryo-EM structure of complex (3.7-3.9 Å) [1] | binding result [2] | binding result [3] | binding result [4] |
| --- | --- | --- | --- | --- |
| Nc1ncnc2c1ncn2[C@@H]1O[C@H](COP(=O)(O)OP(=O)(O)O)[C@@H](O)[C@H]1O [ADP] | Cryo-EM density for nucleotide ATP and ADP for consensus, ssDNA and nexus map |  |  |  |
| Nc1ncnc2c1ncn2[C@@H]1O[C@H](COP(=O)(O)OP(=O)(O)OP(=O)(O)O)[C@@H](O)[C@H]1O [ATP] | Cryo-EM density for nucleotide ATP and ADP for consensus, ssDNA and nexus map |  |  |  |
| CCCCCCCCCCCC (ssDNA) [FAM-labelled dC12 ssDNA] |  | binds | no binding | binds |
